The results in this text go back to a protein production outcome set (Wang et al. 2014).
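Note: failed if final PepcDB status was selected cloned or expressed and not failed if soluble or beyond.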

A short description of the data set: label from the status in PepcDB records.
In the case of “MTPTQNVPEDRIQIGQLRSAYGLNGWLWVYSNTEPMSNMFDYLPWFIETKAGWQTVDVKRWKPHGKGLVVSLKNVSDRNAAESLIGSTIWVAKSQLPKTDVDEYYWSDLKGLTVLGLDEEEQEVNLGQIHELFETGANDVMVVRATADSVDAEERMIPWHKDVVQRVDLEAGRIYVNWGVDYLEHHHHHH”, the protein production entry is recorded as “not failed”. Consider “MNSRLGTTASSITRSALPTTVVWDPAMTAYNFGPGHPMAPQRLELTARLAESLGLFNHNHVAVEAPTVATDVELFSVHSRDYVEAVRRVSADPSAPEEERGLGTEDDPAFAGMHEASARLAGGSLLAAETILSGQAVRAVNFSGGMHHAARERASGFCVYNDVALAIQKLLDGGVQRVVSIDVDAHHGDGTQSIFWNDPRVMTISLHETGLTLFPGTGFANETGGPDAPGTAVNVALPAFTGDAAWLRAFHAVVPQLVGAFQPEVIVSQHGCDSHRDDPLTHLNLSVDGQREAASAVAGLAARYCDNRWIATGGGGYDVTGVVPRAWSHLIGMVTQRPVPLKTPVPEAWRSYVKETYGVWAPESMSDDVDVWWRSWEVGYNPADEVDRTVIATRKEIFPLYGLDPWFD”, for which the protein production result is recorded as “failed”. With “MLKNIFKISNIPAVLWGDKSEKIFIAVHGNMSNKEDAVIQIVAEEADRKGYQVLSFDLPEHGERKNDNTPCKVQFCVNELSIIMNYAKEHWKEINVFACSMGAYFSLLAFQNDVIEKALFLSPVVNMERIIENMMKWFNVTPELLQKEMTIETPIGQKLYWDYLCYVKEHPISTWNTDTYIMYGAKDELCEFETINYFTKKHRCELEVMETGEHYLHTEEQLKIFEQWLHKHID” the entry was “failed”.

Take “MSLTNSSKSFTKFMAASAVFTMGFLSVPTAGAEQTNQIANKPQAIQWHTNLTNERFTTIAHRGASGYAPEHTFQAYDKSHNELKASYIEIDLQRTKDGHLVAMHDETVNRTTNGHGKVEDYTLDELKQLDAGSWFNKKYPKYARASYKNAKVPTLDEILERYGPNANYYIETKSPDVYPGMEEQLLASLKKHHLLNNNKLKNGHVMIQSFSDESLKKIHRQNKHVPLVKLVDKGELQQFNDQRLKEIRSYAIGLGPDYTDLTEQNTHHLKDLGFIVHPYTVNEKADMLRLNKYGVDGVFTNFADKYKEVIKEGHHHHHH”: the protein production entry is “not failed”. On to “PKKIMLVAGHGYNDPGAVGNGTNERDFIRKYITPNIAKYLRHAGHEVALYGGSSQSQDMYQDTAYGVNVGNKKDYGLYWVKSQGYDIVLEIHLDAAGESASGGHVIISSQFNADTIDKSIQDVIKNNLGQIRGVTPRNDLLNVNVSAEININYRLSELGFITNKNDMDWIKKNYDLYSKLIAGAIHGK”, for which the protein production entry is “failed”.

As for “IEKCWTEDEVKRFVKGLRQYGKNFFRIRKELLPNKETGELITFYYYWKKT”, the protein production result is “not failed”.

As for “MVRVGMRAAPRVSLEALKAALGGLKLSEAKVYLITDWQDKRDQARYALLLHTGKKDLLVPDAFGPAFPGGEEALSELVGLLLAQGARRFYEAVVSPGEMTALLDLPPEELLKRVMAIANPTDPGIYLKRAA”, the protein production result is recorded as “not failed”. Consider “MTLEIRPAVPADAEQILAFIIELADYERARHEVVTDVEGIRRSLFAEGSPTRALMCLSEGRPIGYAVYFYSYSTWLGRNGIYLEDLYVTPEYRGVGAGRRLLRELAREAVANDCGRLEWSVLDWNQPAIDFYRSIGALPQDEWVRYRLDGEALRKMAE”, for which the protein production result was “not failed”.

Regarding “MKAFTVHQAKTHLSRLLKAVEEGEEVVILRGKTPVARLVPYRKGKRPLGFVPGKLPESFFEPLPEEELALWEGATS”, the protein production result is given as “not failed”. With “MSYLGGYGLIYLVTIVGYFILASFLGSFQLSSDLFNFEFYSSLSGISALMVWAFWLFLIYLNIILVVRRLHDLNKSGWMGLLLFIPVVQFFFMLYLLLASGTAGTNQYGPVRPSTFIEKLMAWLILIAILISLISTVGFFYYFSGTDTIQTPTQILQKGTEYF”, the protein production result was “failed”. For “MAASSQAPEAKGFRWKLIAPLVVWLAIYLWPVPSGLNVNQWHYFAVFAAVITGLILESMPVGAVGLIGLTVAGVGGYIDPDPTKSLRWMLAGFAESTVWLIVGAFVFSIGYRKSQLGRRIALVLVQKLGSNTLGLGYAVAMSDFLLAPATPSNTARSGGIVYPIISNIPRIYGSEPGPTAGRIGTYVMWTAFAATAVTSSLFFTALAPNAAALAIAKKTVGVEVSWGQWFIGFAPLGILLMILVPLLSYPVCRPEVKRSPEIAEWAAKELSEMGPMSRNEWIMLALIVLAMFLWIAGSSPDINVPLLGSNFVNATTVVFIVISLMLVTGVIEFADIVSEKSAWEVFFYFTSLLTLASGLNEIGFIKWFATEYAKPLAGLSPSTAMILLVALFFWIHYFFSSITSHAAAVLPVVLAVGSGIPGLPVTTLAMLCMYSLGLMGVISPYATGPAPMYFGSGYIGKGQFWGFGLIFGLLYFAGLLLIVLPWLQVR”, the protein production entry is on record as “failed”. The same measure for “MNNSVSSGYDVIGDVHGCASQLEVLLHKLGYETGASGEYRHPERQAIFVGDLIDRGGEQLRVLEVVKAMVDAGSALIVMGNHEFNALAYHTEWPVGSGKYLRPHDDPDNPWSAKNTKQHAAFLDQVRGEDRQRCLEWFATIPLWLDLGELRVVHACWHDDSIGVVENLCGSNAPFGDVSHLVAASTEDDPLYEAVETLLKGPEINLVAHGQPEYHDKDGIPRDNARVQWWNSDARTLRDIAEMGGGFTTSTGEPYPPLPEIALTGADRSYIYTAEIPVFYGHYWRQGSPKHRHDWTDYTACVDFSAVKGGRLTAYRWSGESTIKAENYVTAD”: “failed”; for “ARQVTPGQVMVASTVAKLATIIDGEEDSTQRMGFETILPLREGNGPTLFCFHPASGFAWQFSVLSRYLDPQWSIIGIQSPRPHGPMQTAANLDEVCEAHLATLLEQQPHGPYYLLGYSLGGTLAQGIAARLRARGEQVAFLGLLDTWPPETQNWQEKEANGLDPEVLAEINREREAFLAAQQGSTSTELFTTIEGNYADAVRLLTTAHSVPFDGKATLFVAERTLQEGMTPEQAWAPWIAELDIYRQDCAHVDIISPEYFKEIGPLINTQINN”: “failed”. Regarding “MAKSSVANIFTFSNLSCGLLSLIMTLAASSTNNEYYKLACLFILIAGIIDRYDGRVARALNVSSELGKELDSLADLVSFGVAPSILAYHLCNFSSNFNFLGYIFVLIFPIAGAYRLARYNLSTFDGVFRGIPITLAGMFMALYSLIYLLLNTQPNAVLTIVIMLILSYLMVSNLKLKKL”, the protein production entry was “not failed”. For the sequence “MDGHSKNHCSPVGRYFPMPLDRRFLPGWLAFLALLAICVFPLMAKAAGVPALVGRVNDYAGMISPQARSIIDQKLKALEAEDGTQVAVLTVPSLDGQPIEEFSIKVAEAWKIGQKGRDNGILFIVSKNDRAMRIEVGYGLEGRLTDLQAGRITRDVIKPAFKSGDYDKGFIDGVDAIVASVKGEYKAPKRKNDDGAPSPFLIFIILFVLFVASRFMRFFGGGGGPFGFGGPGGGFFPGGGFGGGGGSSDDGGFSGGGGDFGGGGASDNW”, the protein production entry was “failed”. With “MNNRVEILYCTQCRWLLRATWMTQELLTTFDQEIGELTLKPGTGGLFEVWVNGKRIWSRKEQGGFPEISELKRLVRDEVAPGRDLGHADQKGKTGASPAPAEP” the entry was “failed”; with “MKGYGEMAKNNPTRITAEPGKQEIIITREFDAPRELVFKAFTDPDLYTQWIGPRGFTTALKIFEPKNGGSWQYIQKDPEGNEYAFHGVNHDVTEPERIISTFEFEGLPEKGHVILDTARFEALPGDRTKLTSHSVFQTIEDRDGMLQSGMEEGINDSYERLDELLEKMKKLEHHHHHH”, “not failed”. With “MSLALRGELVVDKTKRKKRRELSEEQKQEIKDAFELFDTDKDQAIDYHELKVAMRALGFDVKKADVLKILKDYDREATGKITFEDFNEVVTDWILERDPHEEILKAFKLFDDDDSGKISLRNLRRVARELGENMSDEELRAMIEEFDKDGDGEINQEEFIAIMTGDI” the entry was “not failed”; with “MITHISPAGSMDLLSQLEVERLKKTASSDLYQLYRNCTLAVLNSGSHTDNSKELLDKHQSFDVNVVRRERGIKLELTDPPEHAFVDGEIIKGIQEHLFSVLRDIVYVNMHLADSQRLNLTNPTHITNLVFGILRNAGALTPGIEPNLVVCWGGHSINGVEYQYTREVGNELGLRELNICTGCGPGAMEGPMKGAAIGHAKQRYTEQRYLGLTEPSIIAA”, “failed”. The same measure for “MAKVTVILTSYNKPNTVGAAIESVLSQSFQDWELWIMDDASNEETQQVIDSYMLYPNVYYYNSQVKDEERHKSTRYATLINEAISRSTGDYLCYLTDDNYYLPERLQKMVQYLERYPSVDVVYSKQLVRTVDNQLITQAERIRPTKGTIRYAENIVDHCSVMHRRSLAEKVYETYGSYWNDDPICWHNGDAFFWNRLSAFALFYPINEVLDVCLKSPTSFQALNAFLPEYLPSGTLVKGLGADVYLIEDNHRRAITPTMFQQLHYREENVVHIPDPVLFKYKEGPAIDEHIWEQGKLFPNHRLIKASQEPHIYYVENHRKRHILTHKEFRLYKFRASEVVEVSRSFLDSIPTGPPISAHVNNQHPLPEGLLVRCGFKFYLSGNNRLYPIKSRVMKKLNLQMKNAVFLDSRAIGRYEQGETIEWKTNKCQPRFNTSSLEHHHHHH”: “failed”; for “NAEKVALAKKVADESAVLLENRNDILPLDLNKYKSVAVVGPNSNQAVLGDYAWTMGDTKEAVSLLQGLQESAGDKIMIRHAEGCDWWSQDKSHIAEAVEVVRNSDIAVVAVGTRSTYLGRSPKYSTAGEGFDLSSLELPGVQEELLKEIKKTGKPMIVVLIAGKPLAMPWVKENADALLVQWYAGEQQGCTLADILLGKVNPSGKLNVSFPRSTGNTPCFYNHFVTDREEPFDQPGTPEEPKGHYIFDKPEPLWNFGHGKSYTTF”: “not failed”.

As to “AKGKNVIVLHLESFQQFLIDYKLNIDGKQYEVTPFLNSLYHSKETFAFSNFFHQVKAGKTSDAETLMETSLFGLNQGSFFVQYGGDNTQQAAPHILKDTNNYSSAVFHGNIGTFWNRNNAYKQLGYQHFFDQSYMSKMTKDNSFQYGLNDKVMFADSIKYLEHMQQPFYTKFITVSNHYPYQSLDGDDTGFPLAKTEDKTINGYFATANYLDAAIKDFFDYLKASGLYKNSIIVMYGDHYGIANSRNTDLAPLLGKDSQTWTEYNNAMLQRVPYMIHVPGTDKGFISNTYGGEVDALPTLLHLLGIDNKNYIELGQDLLSPNNKQLVAFRSEGNYITPNYTSYSGRVYDTKTGV”, the protein production result is reported as “failed”. The same measure for “MAIPGNMWIYDDGGALIKGGCDVADREFSIEFKGFHHNLSIPTDHATGKPTGTRQHSPMIIVKEFDYSSPYLYKAVATGQNLKSAEIKWYKISDAGQEVEYFNMLLEGVRIVSISPTMASPEDKNNNHLESVELRYEKITWKHCDGNIIFTDAWNERQTA”: “not failed”; for “DPSPQTIYKWIKDNISPKLHVDKGFVNILMTSFLQYISSEVNPPSDETDSSSAPS”: “failed”; for “AWKGEVLANNEAGQVTSIIYNPGDVITIVAAGWASYGPTQKWGPQGDREHPDQGLICHDAFCGALVMKIGNSGTIPVNTGLFRWVAPNNVQGAITLIYNDVPGTYGNNSGSFSVNIGKDQS”: “not failed”.

“MSKKPHSIKVPTQYRATAKILKAALEQQKCIKTLIFAEKHARTRSLHTVLKKFSENRVALEKAIEETGLLRDNPSFDPSLAKILVTELLFGRKELNGESKPVQTVRSYKDRLLNSIRDFGVQRKEPNPRYVRINTNLYSLAEALDYLHKSDWRRKELPADASYADFLTAIKSLAENEFMTDLHVEGVLIFPAKWSNYWVRHPLVHSKRFILQNKATCLAAELLAPPSGATVLDMCAAPGMKTVHICNVMQNKGCIYSVEQDHVRYNTLCEITKDAGCDIVKPILGDALNLTPERFPDVEYILVDPSCSGSGMQNRMTVCDEPKEDKRLQKLQGLQIKILSHAMGAFPNVKRIAYCTCSLWKEENEQVVQRCLQLNPSFKLLSCKKALRNKWHNVGDKDYPNIGKNVLYCQPDSDLTDGIFLALFEKRREGEKD”: the protein production entry was “failed”.
